Measurements as given in the DeepSol protein solubility set.

Assay: soluble on expression in E. coli; label from the status in PepcDB or PDB records

Sequence | soluble on expression in E. coli
MADKSADIQTPAPAANTSISATQQPAIQQPNVSGTVWIRQKVALPPDAVLTVTLSDASLADAPSKVLAQKAVRTEGKQSPFSFVLSFNPADVQPNARILLSAAITVNDKLVFITDTVQPVINQGGTKADLTLVPVQQTAVPVQASGGATTTVPSTSPTQVNPSSAVPAPTQYLEHHHHHH | soluble
MADLLNVLKDKLSGKNVKIVLPEGEDERVLTAATQLQATDYVTPIVLGDETKVQSLAQKLDLDISNIELINPATSELKAELVQSFVERRKGKATEEQAQELLNNVNYFGTMLVYAGKADGLVSGAAHSTGDTVRPALQIIKTKPGVSRTSGIFFMIKGDEQYIFGDCAINPELDSQGLAEIAVESAKSALSFGMDPKVAMLSFSTKGSAKSDDVTKVQEAVKLAQQKAEEEKLEAIIDGEFQFDAAIVPGVAEKKAPGAKLQGDANVFVFPSLEAGNIGYKIAQRLGGYDAVGPVLQGLNSPVNDLSRGCSIEDVYNLSIITAAQALQ | not soluble
MADLLPPLTAAQVDAKTKVDEKVDYSNLPSPVPYEELHREALMSLKSDNFEGLRFDFTRALNQKFSLSHSVMMGPTEVPAQSPETTIKIPTAHYEFGANYYDPKLLLIGRVMTDGRLNARLKADLTDKLVVKANALITNEEHMSQAMFNFDYMGSDYRAQLQLGQSALIGATYIQSVTNHLSLGGEIFWAGVPRKSGIGYAARYETDKMVASGQVASTGAVVMNYVQKISDKVSLATDFMYNYFSRDVTASVGYDYMLRQARVRGKIDSNGVASALLEERLSMGLNFLLSAELDHKKKDYKFGFGLTVG | not soluble
MADLPSISLITATYNAAQHLPGLIESVRQQSDRAFEWIVIDGASEDGTLDLIRGAQDVITDYVSEPDFGIFHALNKGIQRATGDYYLVVGADDRLDPLAIANYKQAAASSQADLISAYIYSEKKAIIKPTGGAIWHHGVQAFITTQSVGTLIKRNLHEHYGYYSHYYPTAADALFILKVQQGGGKITTAEFIAGQYNTKGFSYRYKANLLCELFLIQKEFFPKSIQLLLLIYRLIKNYRYLLEHHHHHH | not soluble
MADPKGFLTTPREEWPRRPAGERVRDWDEVYVPGALLPIVGRQADRCMDCGVPFCHEACPLGNLIPEWNDLVSRSDWRAASERLHATNNFPEFTGRLCPAPCEAGCVLAINQPAVTIKNVECAIADTAWEEGFVPPLPPERLSGRTVAVIGSGPAGLAAAQQLTRAGHTVAVYERDDRIGGLLRYGIPAFKMEKRHLERRVGQMRAEGTRFRTSAAVGRDVDAAALRTRYDAVVIATGATAWRELTVPGRELAGVHQAMEYLPLANRVCEGDLERSPLSAAGRHVVVVGGGDTGADCLGTAVREGAASVTQLDIYARPGAERDERAEPWPTYPRLYRLSAAHEEARDLRSAPAADADARLFAASTLRFTGDERGHVRALHLVGVDTGRRPLPGSERSLPADLVLLALGFSGPDRHDGLVDGLGLDMEPRGTITRDRGFATNVPGVFAAGDAARGQSLVVWAIAEGRAVAAAVDRHLSGGSTRLPAPVGPYDRPMTALEHHHHHH | not soluble
MADPNGFLNYPRNDNPYRELAERIKDFAELQVPLSTEERQKQAARCMHCDVPFCHQGIFYGGKRAVSGCPNDNHIPEWNDLIYRGLQRKAYERLILTNPFPEFTGRVCPAPCEKSCAEALNGAGVTIKDNERFLGDLGNDEGWVAEIGKAAEPTGYKIAIIGSGPAGLSAAWRLNQLGHSVTVFEKSDRLGGLLMYGIPNMKLDKKVVQKRIDLMTELGVTFVTNTEIGKTISYEDLSVNFDRIILAIGAGIPRDLNISGREAVGIRFAIDFLTETTKTVLEEGEDNISQSLKGKKVVVIGGGDTGNDCIGTAVRLGAASVSQLEITPSLPTDRLDNNPWPEWPMTLRAGYGQKEAEFVGNTDLITYQMTATAFQTNAEGQLTGLKVAKVGPDFKALEGTEQVIEADLVLLAMGFVGTDTGLLDKFGIQEIYDDYRTNNDKVLVAGDARRGPSLVIWAIREGRKTAEIVDEQLIKVATALEHHHHHH | soluble
MADTEGTSSSIPTSTNSSRHRASRGRGGRFRQAPRQVGANTADNLDAAPLMNPRGGHRGGSGNKRGRGQKEATSASRLQMQPEANFTFNPNAATFNPAQSVLFDPSVPPPTIGASTHSNQNSRQQEPSQNRRRRGGQQNTQRRQLEIQEQRGDSHPQNQSRQNNRNQLNVDRIANQQNKSVQNPSRNPGNSRRGQGARRREQKEEPLTEEETKILADKPLREGLVYLLENNKYECAICYTRITTRQGVWSCKTCYHIFHISTGCITDWARSSRDKEGANTWRCPTCQTENETMPYNYYCFCGRMRNPNFRVGEVPHSCGETCGGARKFGCPHPCTELCHPGPCIECKLFTTKSCNCGKTKKSVRCGSDQEVMCETVCGKQLSCGQHNCERICHSGDCGECTVILEQDCFCGKTPKEVSCNPCAHEKYSCGSECDGMFSCGIHHCTKKCHDKECGECETGANRIRTCPCGRNTLQSLGVTRKKCTDMVPTCDSVCDKWLTCGTPGKNHHCREKCHEGPCPPCNLNTSVICRCGTSKGVIPCDEYLQIMKTTGEYLCTKRCRKKKSCGMHKCQEVCCIQDEHFCLQMCNKRLSCGIHTCENVCHAGQCRPCLQASFDEQFCHCGHTVRMPPIPCGARLPVCSQPCVRPHSCDHSVSHKCHGEQNCPPCTQLTEKMCYGGHRVRKNIPCHIDSVSCGVVCKKPLKCGVHVCQRTCHGEECEKEGEKCTKKCETIRELCEHPCALPCHEDSPCEPSPCKASVRISCECGRIKKDAPCCEVDKMILSKLEKEEEEKSESDGEEKVVKEGILKRSTSFSQLNCMKCDDECKKLERNRKVAEALEVDTDEYGMNKLAPTISFPCYLKEMVRTNIDFVKSVEKILIDLVIQILSGEAYHDTFRAHLPAMSIEKRRFVHEYANFFNIASESVDSPPKRSIVLTAVRGKSHQPLVLISDLVNYKGALKTPGPAVIRKDIMDQALSKKEETEGLMKPLRCTEKMVVRREARPMKEITAPIPLKQQNQFALLGSDVDSDDEESNVPTTSNLVSSPPKDWWKDEEEGWQKVQQKEYVVEVERDMTEDEIEAAKKLDEGPTWEDQCDEDAPATETSSAIESPAKEEPVAELLE | soluble
MADTSCKLKPLCFRFVSTLKSPIAVITVTYSPGKYLASFLDSLPGATSRDTHVVMADNGSVDGVPEQAAASRSNVEFLSTGGNLGYGTAINIAARSLRARREAGEIDGEFFLVSNPDVVFDEDSIDQLLECAKRHPEAGAVGPLIREADGSAYPSARAVPTLANGIGHALLGAVWKSNPWSAAYRDDEDMDTERTAGWLSGSCLLLRWDAFDRVGGFDERYFMYMEDVDLGDRLVRAGFTNVFCPSAQIIHAKGHVAGKNPENMLPAHHESAYRFQADRLAKPWQAPIRLALRIGLKLRAGVAVGVSKMRTKASLEHHHHHH | not soluble
MAEEGYKVVLNVYDLSNGLARQLSTSFLGKPIEAIWHTGVVVYGNEYFFGGGIQSLAAGRTPYGRPVRVVEMGETHIPREVFEDYLRDISPRYTAETYRLLSHNCNNFSNEVAQFLVGAGIPDYILNLPAEVMSSPMGPLIMPMIQNLESTLRTNAAPQATQFVPSSVPPPPPPQNKPGEGSSSSKQEDKAAKAKQGSAADPLGGARGKVQEEVMREFAAIMASGTLRASEAAALAMRRVMERHGNATMQQS | soluble
MAEEYSWDSYLNDRLLATNQVSGAGLASEEDGVVYACVAQGEESDPNFDKWSLFYKEDYDIEVEDENGTKTTKTINEGQTILVVFNEGYAPDGVWLGGTKYQFINIERDLEFEGYNFDVATCAKLKGGLHLVKVPGGNILVVLYDEEKEQDRGNSKIAALTFAKELAESSQLQHHHHHH | soluble
MAEGKAGGAAGLFAKQVQKKFSRAQEKVLQKLGKAVETKDERFEQSANNFYQQQAEGHKLYKDLKNFLSAVKVMHESSKRVSETLQEIYSSEWDGHEELKAIVWNNDLLWEDYEEKLADQAVRTMEIYVAQFSEIKERIAKRGRKLVDYDSARHHLEAVQNAKKKDEAKTAKAEEEFNKAQTVFEDLNQELLEELPILYNSRIGCYVTIFQNISNLRDVFYREMSKLNHNLYEVMSKLEKQHSNKVFVVKGLSSSSRRSLVISPPVRTATVSSPLTSPTSPSTLSLKSESESVSATEDLAPDAAQGEDNSEIKELLEEEEIEKEGSEASSSEEDEPLPACNGPAQAQPSPTTERAKSQEEVLPSSTTPSPGGALSPSGQPSSSATEVVLRTRTASEGSEQPKKRASIQRTSAPPSRPPPPRATASPRPSSGNIPSSPTASGGGSPTSPRASLGTGTASPRTSLEVSPNPEPPEKPVRTPEAKENENIHNQNPEELCTSPTLMTSQVASEPGEAKKMEDKEKDNKLISADSSEGQDQLQVSMVPENNNLTAPEPQEEVSTSENPQL | soluble
MAEIKHYQFNVVMTCSGCSGAVNKVLTKLEPDVSKIDISLEKQLVDVYTTLPYDFILEKIKKTGKEVRSGKQLAREVILAVHGMTCSACTNTINTQLRALKGVTKCDISLVTNECQVTYDNEVTADSIKEIIEDCGFDCEILRDS | soluble
MAEILRAENIKKVIRGYEILKGISLSVKKGEFVSIIGASGSGKSTLLYILGLLDAPTEGKVFLEGKEVDYTNEKELSLLRNRKLGFVFQFHYLIPELTALENVIVPMLKMGKPKKEAKERGEYLLSELGLGDKLSRKPYELSGGEQQRVAIARALANEPILLFADEPTGNLDSANTKRVMDIFLKINEGGTSIVMVTHERELAELTHRTLEMKDGKVVGEITRV | soluble
MAEINIYQNPGQSLANIYKGFARQCNPGFVFPEAQTIEAWDIPLRLHPEFIPGGDISKADQQYSTLLAQEIANGVTIGFRMVNEKERVCNVEILPLLTSMAQNLDRIKARFGSGYLDRFKGSPNVYPTDVGFSTDASGGISQESGLLVSYGVNLRTLTPGTWQAMTLPEDIKALVGPGVGLRLDAPNFSDVFNTIKSGLRYTTAVTLLLAYFAAI | soluble
MAEIVLTQSPGTQSLSPGERATLSCRASQSVGNNKLAWYQQRPGQAPRLLIYGASSRPSGVADRFSGSGSGTDFTLTISRLEPEDFAVYYCQQYGQSLSTFGQGTKVEVKLVPR | soluble
MAEKSFKYIILGGGVSAGYAAKEFANQGVQPGELAVISKEAVAPYERPALSKGYLFPEGAARLPGFHCCVGSGGEKLLPESYKQKGIELILSTEIVKADLSAKSLVSATGDVFKYQTLIIATGSTVLRLTDFGVKGADSKNILYLREIDDADKLVEAIKAKKGGKAVVVGGGYIGLELSAVLRINNLDVTMVFPEPWCMPRLFTADIAAFYETYYTNKGVKIIKGTVASGFTAQPNGEVKEVQLKDGRTLEADIVIVGVGAKPLTSLFKGQVEEDKGGIKTDAFFKTSVPDVYAVGDVATFPLKMYGDVRRVEHVDHSRKSAEQAVKAIKAAEGGAAVEEYDYLPFFYSRSFDLSWQFYGDNVGDSVLFGDSNPSNPKPRFGAYWVQGGKVVGAFMEGGSGDENKALAKVAKARPSAESLDELVKQGISFAAKI | soluble
MAELDEAALLGDGNEQHDGPIDENALLDGKELKEEDIDDLYDEAIAPTNSTESAKPVSPTITTVTAPTAGIGAKPATSSEGRKYCCYVGNLLWYTTDADLLKALQSTGLARSQFADMKFFENRTNGQSKGYALLVLNSDAAVKQTMEILPTKTIHGQSPTVLSYNKTNQAKLEDAQAKNQTRPDVKKKGFEEGCVNMGTIRIGAGGQTGRTGTSVSGRSGPPPLMMQQVRPTPLMSQPTSLPSNLNQAPQMRLQINGQQVPLMNRAPVPQQTMLGNGPLGGMNQQIQQQPQMMMGQQVRPMMQTSMGIQPMMGMNAPPPMNNQFQNRPPQLGSMGVQPLMQMNTAMRPPINGLPPVHVNPQMFPGLQGTVLSDAEFEDVMTRNQTVSSSAIARAITDASVGDIKGASETILTAIQLIKNSRIGHDERCRQLVYGLEHTLKGLESKGYSSRSKSHRDRSRSRERDRKRRRRSRTRSRSYSRSPSPRRRRY | soluble
MAELDIGQHCQVQHCRQRDFLPFVCDGCSGIFCLEHRSKDSHGCSEVNVVKERPKTDEHKSY | soluble
